Consider 1 protein from PMC6093294.

Usually Km stands for the substrate concentration at which the rate is half of its maximum. One may read the kcat as the maximal rate divided by the concentration of active sites. For orientation: kcat/Km means the second-order rate constant that governs catalysis at low substrate concentration.

What all share (assay): purified protein
Substrate in data set [1]: CCCCCCCCCCCCCCCC(=O)SCCNC(=O)CCNC(=O)[C@H](O)C(C)(C)COP(=O)(O)OP(=O)(O)OC[C@H]1O[C@@H](n2cnc3c(N)ncnc32)[C@H](O)[C@@H]1OP(=O)(O)O
The note with it: 60 mM tryptamine, 300 mM Tris pH 8.0, 150 μM DTNB, 22°C.

Substrate in data set [2]: CCCCC/C=C\C/C=C\C/C=C\C/C=C\CCCC(=O)SCCNC(=O)CCNC(=O)[C@H](O)C(C)(C)COP(=O)(O)OP(=O)(O)OC[C@H]1O[C@@H](n2cnc3c(N)ncnc32)[C@H](O)[C@@H]1OP(=O)(O)O
It is filed as biochemical, Bombyx mori. The note with it: 60 mM tryptamine, 300 mM Tris pH 8.0, 150 μM DTNB, 22°C.

Substrate in data set [3]: CCCCCCCC/C=C\CCCCCCCC(=O)SCCNC(=O)CCNC(=O)[C@H](O)C(C)(C)COP(=O)(O)OP(=O)(O)OC[C@H]1O[C@@H](n2cnc3c(N)ncnc32)[C@H](O)[C@@H]1OP(=O)(O)O
The data set is classed as biochemical, Bombyx mori. The settings on record: 60 mM tryptamine, 300 mM Tris pH 8.0, 150 μM DTNB, 22°C.

Substrate in data set [4]: CCCCCCCCCCCC(=O)SCCNC(=O)CCNC(=O)[C@H](O)C(C)(C)COP(=O)(O)OP(=O)(O)OC[C@H]1O[C@@H](n2cnc3c(N)ncnc32)[C@H](O)[C@@H]1OP(=O)(O)O
The data set is classed as biochemical, Bombyx mori. The settings on record: 60 mM tryptamine, 300 mM Tris pH 8.0, 150 μM DTNB, 22°C.

Substrate in data set [5]: CCCCCCCCCCCCCC(=O)SCCNC(=O)CCNC(=O)[C@H](O)C(C)(C)COP(=O)(O)OP(=O)(O)OC[C@H]1O[C@@H](n2cnc3c(N)ncnc32)[C@H](O)[C@@H]1OP(=O)(O)O
The data set is classed as biochemical, Bombyx mori. The settings on record: 60 mM tryptamine, 300 mM Tris pH 8.0, 150 μM DTNB, 22°C.

Substrate in data set [6]: NCCc1c[nH]c2ccccc12
It is filed as biochemical, Bombyx mori. The settings on record: 100 μM oleoyl-CoA, 300 mM Tris pH 8.0, 150 μM DTNB, 22°C.

Substrate in data set [7]: NCCc1ccc(O)cc1
The data set is classed as biochemical, Bombyx mori. The settings on record: 100 μM oleoyl-CoA, 300 mM Tris pH 8.0, 150 μM DTNB, 22°C.

Substrate in data set [8]: NC[C@H](O)c1ccc(O)cc1
It is filed as biochemical, Bombyx mori. The settings on record: 100 μM oleoyl-CoA, 300 mM Tris pH 8.0, 150 μM DTNB, 22°C.

B1: Bm-iAANAT (insect arylalkylamine N-acyltransferase from Bombyx mori) (Bombyx mori) (protein)
chain: MAVTSTRGIVNLKEKGHFERENARVEKYTLGDELPAQLSSLEIRPRKMSVPAYTIQRLTYNDRDLVLKFLRRFFFRDEPMNLAVNLLETPESRCTELDDYAAATLSDGVSVAAVDENGDYVGVIINGIVRREEVDYTDKSEDCPNPKFRRILKVLGHLDREARIWDKLPETCDSVLEIRIASTHSSWRGRGLMRVLCEEAERLAKAMGAGALRMDTTSAFSAAAAERLNYKMAFGVRYADLPYAPQPEAPHLEARVYIKEL
Turning to B1, the Km in “purified protein [1]” came to 1.1 ± 0.30 µM; in “purified protein [2]”, 1.2 ± 0.67 µM; in “purified protein [3]”, 1.7 ± 0.51 µM; in “purified protein [4]” it was 0.97 ± 0.12 µM; in “purified protein [5]” it was 0.92 ± 0.20 µM; in the data set “purified protein [6]”, 7000 ± 500 µM. Further, the Km is 84000 ± 12000 µM in “purified protein [7]” and 65000 ± 16000 µM in “purified protein [8]”. For the same protein, the kcat in “purified protein [1]” came out at 0.51 s⁻¹; in “purified protein [2]” it was 0.27 ± 0.02 s⁻¹; in the data set “purified protein [3]” it was 0.42 ± 0.02 s⁻¹; in the data set “purified protein [5]”, 0.66 ± 0.01 s⁻¹; in “purified protein [6]” it was 0.72 ± 0.01 s⁻¹; in “purified protein [7]”, 2.7 ± 0.19 s⁻¹. Also, the kcat in “purified protein [8]” worked out at 0.31 ± 0.04 s⁻¹. The kcat/Km in the data set “purified protein [1]” amounted to 490000 M⁻¹ s⁻¹; in the data set “purified protein [2]”, 240000 ± 130000 M⁻¹ s⁻¹; in “purified protein [3]” it was 240000 ± 70000 M⁻¹ s⁻¹; in the data set “purified protein [5]” it was 720000 ± 150000 M⁻¹ s⁻¹; in “purified protein [6]”, 100 ± 7 M⁻¹ s⁻¹; in the data set “purified protein [7]” it was 32 ± 5.3 M⁻¹ s⁻¹. Further, the kcat/Km in “purified protein [8]” stood at 4.7 ± 1.2 M⁻¹ s⁻¹.
